This note sets out measurements from PMC4889922.

Where no end group is shown, it is not given here. [ ]: non-standard residue; d: D form. pS = N[C@@H](COP(=O)(O)O)C(=O)O

By Kd is commonly meant the constant that tells how readily two partners part at equilibrium.

The target in experiment [1] is SHARP (human SPOC domain) SPOC domain, 3477-3664 (UniProt Q96T58). The experiment can be described thus: anti-Flag co-IP, NCoR blot. The settings on record: reference: NCoR-C wild type; sites S2449,S2451.
Substrate in the experiment “ITC”: SPOC domain from murine SHARP, residues 3474-3643 (mouse) (UniProt Q62504)
The experiment can be described thus: ITC. A general note: ITC needs no label: the signal is the heat of the interaction.

In the case of “NCoR NCoR-C, 1942-2453 (from UniProt Q60974) NCoR-C S2449A/S2451A”, the “binding against the reference” value in experiment [1] was “lost”. Take REPAPLLSAQYETL[pS]D[pS]DD [NCoR C-terminal peptide, double-phosphorylated]: the Kd in the experiment “ITC” is 0.05 µM.
